Test [1] addresses T1, hFc tagged human LAG3 ECD recombinant protein (human, UniProt P18627 23-450).
T1 construct: range 23-450; also called biotin labelled hFc tagged human LAG3 ECD; not shown: human IgG Fc tag
T1 sequence (looked up): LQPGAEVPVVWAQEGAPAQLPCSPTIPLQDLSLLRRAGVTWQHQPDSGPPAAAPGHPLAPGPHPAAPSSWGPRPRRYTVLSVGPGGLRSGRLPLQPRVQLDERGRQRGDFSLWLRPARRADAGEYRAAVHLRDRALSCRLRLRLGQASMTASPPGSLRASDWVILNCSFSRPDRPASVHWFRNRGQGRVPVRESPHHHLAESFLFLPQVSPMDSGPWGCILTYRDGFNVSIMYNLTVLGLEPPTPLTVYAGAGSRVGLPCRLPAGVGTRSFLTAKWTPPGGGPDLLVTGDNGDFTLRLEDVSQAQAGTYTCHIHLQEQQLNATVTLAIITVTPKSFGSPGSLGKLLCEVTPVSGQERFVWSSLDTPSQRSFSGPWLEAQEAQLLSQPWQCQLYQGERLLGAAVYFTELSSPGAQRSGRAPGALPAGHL
As to the kind of experiment: competitive ELISA: excess competitor, biotin hFc-LAG3 ECD, coated BMS-986016. The protocol:
(§1) Competitive ELISA assay was used for epitope binning of the purified hybridoma antibodies. […] After washing, HRP labeled anti-streptavidin (SA) 2nd antibody (Sigma) was added and incubated at 37° C. for 1 hour. Then, 100 μl/well of TMB solution (Biotechnology) was added. After incubation for 15 minutes at room temperature, the reaction was stopped by the addition of 50 μl of 1N HCl. OD 450 nm was read. Competition ratio was calculated.
In general terms: ELISA stands for enzyme-linked immunosorbent assay.

Test [2] has as its target T1, hFc tagged human LAG3 ECD recombinant …. As to the kind of experiment: competitive FACS: hFc-LAG3 ECD binding to Raji cells (MHC II). The protocol: Competitive FACS assay was used to determine whether the purified hybridoma antibodies can block LAG3 and MHC II interaction. […] After washing, dye labeled anti-human Fc 2nd antibody (Sigma) was added and incubated at 37° C. for 1 hour. Fluorescence intensity was detected.

Test [3] has as its target T2, hFc tagged human LAG3 D1-D2 recombinant protein (human, UniProt P18627 23-261).
T2 construct: range 23-261; generated by Chempartner; also called hLAG3 D1-D2; not shown: human IgG Fc tag
T2 sequence (looked up): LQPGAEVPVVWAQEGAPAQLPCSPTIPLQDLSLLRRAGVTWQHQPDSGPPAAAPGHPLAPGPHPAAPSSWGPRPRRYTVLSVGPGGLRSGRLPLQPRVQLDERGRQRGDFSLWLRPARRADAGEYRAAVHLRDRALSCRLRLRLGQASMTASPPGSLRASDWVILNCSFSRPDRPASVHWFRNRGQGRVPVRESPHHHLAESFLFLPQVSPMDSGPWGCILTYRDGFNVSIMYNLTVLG
Description: ELISA, coated hFc-hLAG3 D1-D2. As to the method:
Binding activity of the purified hybridoma antibodies against human LAG3 was detected by ELISA assay using hFc tagged human LAG3 D1-D2 recombinant protein. Briefly the antibodies were incubated with ELISA microplate coated antigens at 37° C. for 1 hour. After washing, horseradish peroxidase (HRP) labeled anti-human IgG 2nd Ab (Sigma) was added and incubated at 37° C. for 1 hour. Then, 100 μl/well of TMB solution (Biotechnology) was added. After incubation for 15 minutes at room temperature, the reaction was stopped by the addition of 50 μl of 1N HCl. OD 450 nm was read and EC₅₀ was calculated using GraphPad Prism9.0.

Test [4] concerns the target T3, human LAG3, full length, stably expressed on cells (human, UniProt P18627 23-525).
T3 construct: whole, on cells; also called CHOK1-human LAG3
T3 sequence (looked up): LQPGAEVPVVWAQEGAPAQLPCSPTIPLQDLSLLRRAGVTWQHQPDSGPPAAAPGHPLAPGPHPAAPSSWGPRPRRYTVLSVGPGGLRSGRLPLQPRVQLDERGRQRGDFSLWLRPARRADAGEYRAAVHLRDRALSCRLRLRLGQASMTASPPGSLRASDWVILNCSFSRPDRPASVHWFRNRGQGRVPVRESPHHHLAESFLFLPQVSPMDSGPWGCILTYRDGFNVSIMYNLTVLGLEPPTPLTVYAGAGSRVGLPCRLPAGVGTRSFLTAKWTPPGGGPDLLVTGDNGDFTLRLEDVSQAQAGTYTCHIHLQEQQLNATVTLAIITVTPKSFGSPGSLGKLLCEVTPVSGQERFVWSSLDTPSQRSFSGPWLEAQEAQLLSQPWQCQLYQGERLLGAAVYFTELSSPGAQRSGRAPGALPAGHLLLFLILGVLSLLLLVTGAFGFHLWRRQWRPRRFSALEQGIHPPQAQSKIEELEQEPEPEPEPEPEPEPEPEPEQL
As to the kind of experiment: FACS on 293F-human LAG3 cells. The protocol:
(§2) Briefly the antibodies were incubated with 2×10⁵ target cells at 4° C. for 1 hour. After washing, fluorescence labeled anti-mouse IgG 2nd antibody (Life Technologies) was added and incubated at 4° C. for 1 hour. Geometric median fluorescence intensity (MFI) was detected and EC₅₀ was calculated using GraphPad Prism9.0.

Test [5] addresses T4, cyno LAG3, full length, stably expressed on 293F cells (cyno).
T4 construct: whole, on cells
As to the kind of experiment: FACS on 293F-cyno LAG3 cells, 20 nM antibody. As to the method: as §2

Test [6] concerns the target T5, mouse LAG3, full length, stably expressed on CHOK1 cells (mouse, UniProt Q61790 24-521).
T5 construct: whole, on cells
T5 sequence (looked up): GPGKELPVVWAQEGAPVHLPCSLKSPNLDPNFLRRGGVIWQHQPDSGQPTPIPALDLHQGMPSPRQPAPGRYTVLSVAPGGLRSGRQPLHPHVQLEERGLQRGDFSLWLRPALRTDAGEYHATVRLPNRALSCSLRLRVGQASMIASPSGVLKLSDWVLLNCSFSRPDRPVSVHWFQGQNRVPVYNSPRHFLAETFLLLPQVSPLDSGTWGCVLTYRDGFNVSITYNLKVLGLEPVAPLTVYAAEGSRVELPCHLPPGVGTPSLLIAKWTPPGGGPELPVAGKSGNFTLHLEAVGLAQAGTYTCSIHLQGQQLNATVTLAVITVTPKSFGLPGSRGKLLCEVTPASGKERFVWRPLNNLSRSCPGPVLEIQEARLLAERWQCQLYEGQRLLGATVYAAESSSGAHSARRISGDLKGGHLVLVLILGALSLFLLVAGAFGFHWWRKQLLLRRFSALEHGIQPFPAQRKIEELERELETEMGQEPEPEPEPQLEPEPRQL
As to the kind of experiment: FACS on CHOK1 cells expressing mouse LAG3. The protocol: as §2

Test [7] has as its target T1, hFc tagged human LAG3 ECD recombinant …. Description: competitive ELISA: excess competitor, biotin hFc-LAG3 ECD, coated BAP-050. The protocol: as §1
Test [8] addresses T3, human LAG3, full length, stably …. As to the kind of experiment: FACS on 293F cells stably expressing human LAG3. As to the method:
as §2
MFI was detected and EC₅₀ was calculated using GraphPad Prism9.0.

Test [9] concerns the target T6, mFc tagged human LAG3 ECD recombinant protein (human, UniProt P18627 23-450).
T6 construct: extracellular domain; purchased from Biointron; not shown: mouse IgG Fc (mFc) tag
T6 sequence (looked up): T1 sequence (looked up)
As to the kind of experiment: competitive FACS: mFc-LAG3 ECD binding to Raji cells (MHC II). As to the method: Activity of the purified chimeric antibodies to block LAG3 and MHC II interaction was determined by competitive FACS assay. […] After washing, dye labeled anti-mouse Fc 2nd antibody (Sigma) was added and incubated at 37° C. for 1 hour. Fluorescence intensity was detected.

Test [10] addresses T7, human LAG3 (form used in Octet, Biacore and HDX-MS not given) (human, UniProt P18627 23-450, limits assumed).
T7 sequence (looked up): T1 sequence (looked up)
Description: BLI (Octet). (In BLI a coated tip is dipped into the sample, and binding shifts an interference pattern.)

For test [11], the target named is T1, hFc tagged human LAG3 ECD recombinant …. As to the kind of experiment: competitive ELISA format II: biotin hFc-LAG3 ECD binding to coated His-FGL1. The protocol: After washing, HRP labeled anti-His 2nd antibody (Sigma) was added and incubated at 37° C. for 1 hour. Then, 100 μl/well of TMB solution (Biotechnology) was added. After incubation for 15 minutes at room temperature, the reaction was stopped by the addition of 50 μl of 1N HCl. OD 450 nm was read. […] After washing, HRP labeled anti-SA 2nd antibody (Sigma) was added and incubated at 37° C. for 1 hour. Then, 100 μl/well of TMB solution (Biotechnology) was added. After incubation for 15 minutes at room temperature, the reaction was stopped by the addition of 50 μl of 1N HCl. OD 450 nm was read. […] The competition assay of format III is a competitive FACS assay. […] After washing, dye labeled anti-His 2nd antibody (Sigma) was added and incubated at 37° C. for 1 hour. Fluorescence intensity was detected.

From US20250313625A1 (ELPISCIENCE SUZHOU BIOPHARMA, published 2025) come the findings set out here.

Residue numbers refer to the chain shown, from its start.

B1: Antibody 027 (antibody, V domains shown)
VH: EVKILQSGGGLVQPGGSLKLSCAASGIDFSRYWMSWVRRTPGKGLEWIGEINPDSSTINYAPSLKDKFIISRDNAKNTLYLQMSKVRSEDTALYYCARLGIIPTYHYGSSGYYYAMDYWGQGTSVTVSS
VL: DVLMTQTPLSLPVSLGDRASISCRSSQTIVHGNGHTSLEWYLQKPGQSPQLLIYKVSNRFSGVPDRFSASGSGTDFTLTISRVEAEDLGVYYCFQVSHVPYTFGGGTKLEIK
notes: mouse hybridoma antibody
B1: the figures for the “% competition” value in test [1] and in test [7] were 7.2% and 85.1%, respectively. The concentration for half-maximal inhibition (IC50) in test [2] was 5.4 nM. Moreover, the “TOP blocking (%)” value in test [2] was found to be 97.2%. Moreover, the values for the EC50 in test [3] and in test [4] were 0.05 nM and 2.38 nM, respectively. In addition, the “MFI at 20 nM” value in [5] came out at 132 MFI. In addition, the binding result in [6] is “no binding”.

B2: Antibody 023 (antibody, V domains shown)
VH: QIQLVQSGPVLKKPGETVKISCKASGYTFTESPMNWVKQAPGRGFKWMGMIYTDTGEPTYAEEFKGRFAFSLETSASTAYLQINNLKSEDTATYFCVSDYGSILYWYFDVWGTGTTVTVSS
VL: DIVMTQSHKFMSTSVGDRVSITCKASQDVSTAVAWYQQTPGQSPKLLIYSASYRYTGVPDRFTGSGSGTDFTFTISSVQAEDLAVYYCQQHYNSPPTFGAGTKLELK
notes: mouse hybridoma antibody
Consider B2, for which the “% competition” value was 43.7% in [1] and -2.7% in [7]. Further, the IC50 in test [2] was determined as 4.9 nM. Moreover, in test [2], the “TOP blocking (%)” value turned out to be 84.2%. The EC50 in test [3] is 0.05 nM; in test [4], 2.65 nM. The “MFI at 20 nM” value in test [5] turned out to be 125 MFI. In addition, the binding result in test [6] was “no binding”.

B3: Antibody 029 (antibody, V domains shown)
VH: DVKLVESGEDLVKPGGSLKLSCAASGFTFSSYAMSWVRQTPEKRLEWVAYVTSGGDYIYYADTVKGRFTISRDDVRNTLYLQMSSLKSEDTAMYYCTRVAYDYEWYFDVWGTGAPVTVSS
VL: B2 VL with S30T, T39K, P59S, V85L, Y92D, N93S, P96W, A100G, L106I
notes: mouse hybridoma antibody
Turning to B3, the “% competition” value worked out at 20.3% in [1] and 23.5% in [7]. Besides, the IC50 in test [2] amounted to 4.6 nM. Moreover, the “TOP blocking (%)” value in test [2] stood at 90.7%. Further, the EC50 stood at 0.06 nM in test [3] and 4.58 nM in test [4]. Moreover, the “MFI at 20 nM” value in test [5] is 35.6 MFI. In addition, in test [6], the binding result was “no binding”.

B4: Antibody 024 (antibody, V domains shown)
VH: EVQLQQSGPELVKPGASVKISCKASGYTFTDYYMNWVKQSHGKRLEWIGDIDPNNGGTSYNQKFKGKATLTVDKSSSSAYMDLRSLTSEDSAVYYCARAGSYYYGSSYVEYFDVWGTGTTVTVSS
VL: DIQMTQSPASLSASVGETVTITCRASGNIHNYLAWYQQKQGASPQLLVYNAKTLADGVPSRFSGSGSGTEFSLKINSLQPEDFGNYYCQHFWNTPYTFGGGTKLEIK
notes: mouse hybridoma antibody
With B4, the “% competition” value in test [1] is 73%; in test [7], -0.5%. Also, the IC50 in test [2] is 5.5 nM. Besides, in test [2], the “TOP blocking (%)” value stood at 81%. Further, the results for the EC50 in test [3] and in [4] were 0.05 nM and 2.04 nM, respectively. Besides, the “MFI at 20 nM” value in test [5] was found to be 154 MFI. For the same molecule, the binding result in test [6] is given as “no binding”.

B5: hu023.13 (antibody, human IgG4, V domains shown)
VH: QIQLVQSGPELKKPGASVKISCKASGYTFTESPMNWVRQAPGQGFEWMGIIYTDTGEPTYAEEFKGRFVFSLDTSVSTAYLQISSLKAEDTAVYFCVSDYGSILYWYFDVWGQGTLVTVSS
VL: DIQMTQSPSSLSASVGDRVTITCKASQDVSTAVAWYQQKPGKAPKLLIYSASYRYTGVPSRFSGSGSGTDFTLTISSLQPEDFATYYCQQHYNAPPTFGQGTKLEIK
notes: humanized from 023c
On to B5, for which, in [8], the EC50 came out at 0.19 nM and the “TOP MFI” value was 3100. Further, in [9], the IC50 amounted to 5.7 nM and the “TOP blocking (%)” value is 99.3%. In [10], the affinity, expressed as Kd, was 0.121 nM; the off-rate constant (koff) amounted to 3.67e-05 s⁻¹; the kon was determined as 303000 M⁻¹ s⁻¹. In test [11], the IC50 worked out at 1.2 nM and the “TOP blocking (%)” value came out at 83.2%.

The IC50 is the concentration that gives 50% inhibition. By EC50 is commonly meant the midpoint of the concentration-response curve. One may read the Kd as the concentration at which binding is half-saturated. A word on the koff: it is the rate constant with which the complex falls apart. Low values mean a long-lived complex, high ones a short-lived complex. Broadly, the kon is a measure of how fast the partners come together. Higher therefore signals fast association.
